According to patent US12186374B2 (Sanofi-Aventis Deutschland GmbH, priority 2014, dated 2025):

Tests used:
[1] = test system: patients with Type 2 diabetes mellitus (T2DM); test: Fasting plasma glucose change from baseline to Week 30 (Example 2); format: in vivo, human
Experimental: FPG is measured at a central laboratory. At V5 and V21, FPG will be part of the standardized meal test.
Similar MMRM method or ANCOVA was applied on continuous secondary efficacy endpoints and Cochran-Mantei-Haenszel method stratified by randomization strata was applied on categorical efficacy endpoints.

[2] = test system: patients with Type 2 diabetes mellitus (T2DM); test: Pen-related event questionnaire (Example 2); conditions: on-treatment period

Gly(A21)-Arg(B31)-Arg(B32)-human insulin [Insulin Glargine]
FPG, LS mean change from baseline to Week 30 ([1]; Example 2): -3.27 mmol/L | Fasting plasma glucose, change from baseline to Week 30, LS Mean (SE) ([1]; MMRM, mITT population): −3.27 (0.091) mmol/L | Fasting plasma glucose, Week 30, Mean (SD) ([1]; mITT population): 6.53 (1.76) mmol/L | Fasting plasma glucose, Week 30, Median ([1]; mITT population): 6.20 mmol/L | Patients reporting pen-related events, % ([2]; Example 2): 2.1% | Patients reporting pen-related events, number ([2]; Example 2): 10 patients | Patients with events reported in pen-related event questionnaire: Any pen-related events ([2]; Safety population): 10 (2.1%) Number (%) | Pen-related events: Associated with a clinical event ([2]; Safety population): 0 Number (%) | Pen-related events: Not associated with a clinical event ([2]; Safety population): 10 (2.1%) Number (%)
